T1: human GIP receptor (human) (UniProt P48546)
T1 sequence (looked up): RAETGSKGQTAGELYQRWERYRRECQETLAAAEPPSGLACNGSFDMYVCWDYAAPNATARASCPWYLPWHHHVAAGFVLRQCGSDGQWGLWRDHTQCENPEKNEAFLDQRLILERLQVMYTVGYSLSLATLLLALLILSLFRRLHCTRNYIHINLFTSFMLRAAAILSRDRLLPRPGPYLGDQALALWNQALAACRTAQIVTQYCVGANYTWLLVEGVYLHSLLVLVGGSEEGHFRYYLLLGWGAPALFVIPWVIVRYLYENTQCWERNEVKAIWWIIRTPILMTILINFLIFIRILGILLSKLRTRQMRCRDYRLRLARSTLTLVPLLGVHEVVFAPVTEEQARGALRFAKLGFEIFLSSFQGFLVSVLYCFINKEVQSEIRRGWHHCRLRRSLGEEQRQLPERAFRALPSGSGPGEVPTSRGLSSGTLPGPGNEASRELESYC

B1: Example 795 (peptide)
chain: YXQGTFTSDFSQXLDKKAQXAFIEYLIEGGESSGAPPPSGS
modifications: synthetic construct; SITE 2: note = 2-Aminoisobutyric Acid; SITE 13: note = alpha-methyl-leucine; SITE 17: note = Lysine is chemically modified through conjugation of the epsilon-amino group of the Lysine side chain with (2-[2-(2-Amino-ethoxy)-ethoxy]-acetyl)-(gamma-Glu)-CO-(CH2) 16-CO2H; SITE 20: n
B2: Example 799 (peptide)
chain: B1 chain with Q12X, G29X, E31P
modifications: synthetic construct; SITE 2: note = 2-Aminoisobutyric Acid; SITE 12: note = (S)-2,4-diaminobutanoic acid; SITE 13: note = alpha-methyl-leucine; SITE 17: note = Lysine is chemically modified through conjugation of the epsilon-amino group of the Lysine side chain with (2-[2-(2-Amino-ethoxy)-ethoxy]-ac)
B3: Example 805 (peptide)
chain: B1 chain with Q12K, G29X, G30S, E31P
modifications: synthetic construct; SITE 2: note = 2-Aminoisobutyric Acid; SITE 13: note = alpha-methyl-leucine; SITE 17: note = Lysine is chemically modified through conjugation of the epsilon-amino group of the Lysine side chain with (2-[2-(2-Amino-ethoxy)-ethoxy]-acetyl)-(gamma-Glu)-CO-(CH2) 16-CO2H; SITE 20: n
B4: Example 875 (SEQ ID NO: 881) (peptide)
chain: B1 chain with E28A, E31P
modifications: synthetic construct; SITE 2: note = 2-Aminoisobutyric Acid; SITE 13: note = alpha-methyl-leucine; SITE 17: note = Lysine is chemically modified through conjugation of the epsilon-amino group of the Lysine side chain with (2-[2-(2-Amino-ethoxy)-ethoxy]-acetyl)-(gamma-Glu)-CO-(CH2) 16-CO2H; SITE 20: n
B5: Example 796 (peptide)
chain: B1 chain with Q12X, G29X, E31P
modifications: synthetic construct; SITE 2: note = 2-Aminoisobutyric Acid; SITE 12: note = L-ornithine; SITE 13: note = alpha-methyl-leucine; SITE 17: note = Lysine is chemically modified through conjugation of the epsilon-amino group of the Lysine side chain with (2-[2-(2-Amino-ethoxy)-ethoxy]-acetyl)-(gamma-Glu)
B6: Example 862 (SEQ ID NO: 868) (peptide)
chain: B1 chain with G29X, E31P
modifications: not fully specified; synthetic construct; SITE 2: note = 2-Aminoisobutyric Acid; SITE 13: note = alpha-methyl-leucine; SITE 17: note = Lysine is chemically modified through conjugation of the epsilon-amino group of the Lysine side chain with (gamma-Glu)3-CO-(CH2)16-CO2H; SITE 20: note = 3-(4-Pyridyl)-L-alanine; SITE 29:
B7: Example 822 (peptide)
chain: B1 chain with F10X, I27L, G29A, E31P, S41X
modifications: synthetic construct; SITE 2: note = 2-Aminoisobutyric Acid; SITE 10: note = 3-(4-Pyridyl)-L-alanine; SITE 13: note = alpha-methyl-leucine; SITE 17: note = Lysine is chemically modified through conjugation of the epsilon-amino group of the Lysine side chain with (2-[2-(2-Amino-ethoxy)-ethoxy]-acetyl)
B8: Example 876 (SEQ ID NO: 882) (peptide)
chain: B1 chain with E28A, E31P
modifications: not fully specified; synthetic construct; SITE 2: note = 2-Aminoisobutyric Acid; SITE 13: note = alpha-methyl-leucine; SITE 17: note = Lysine is chemically modified through conjugation of the epsilon-amino group of the Lysine side chain with (gamma-Glu)2-CO-(CH2)16-CO2H; SITE 20: note = 3-(4-Pyridyl)-L-alanine; SITE 41:
B9: Example 801 (peptide)
chain: B1 chain with F10X, Q12K, G29X, E31P
modifications: synthetic construct; SITE 2: note = 2-Aminoisobutyric Acid; SITE 10: note = 3-(4-Pyridyl)-L-alanine; SITE 13: note = alpha-methyl-leucine; SITE 17: note = Lysine is chemically modified through conjugation of the epsilon-amino group of the Lysine side chain with (2-[2-(2-Amino-ethoxy)-ethoxy]-acetyl)
B10: Example 77 (peptide)
chain: B1 chain with Q12R, I27L, E28A, E31P
modifications: synthetic construct; SITE 2: note = 2-Aminoisobutyric Acid; SITE 13: note = alpha-methyl-leucine; SITE 17: note = Lysine is chemically modified through conjugation of the epsilon-amino group of the Lysine side chain with (2-[2-(2-Amino-ethoxy)-ethoxy]-acetyl)-(gamma-Glu)-CO-(CH2) 18-CO2H; SITE 20: n
B11: Example 806 (peptide)
chain: B1 chain with Q12R, G29X, G30S, E31P
modifications: synthetic construct; SITE 2: note = 2-Aminoisobutyric Acid; SITE 13: note = alpha-methyl-leucine; SITE 17: note = Lysine is chemically modified through conjugation of the epsilon-amino group of the Lysine side chain with (2-[2-(2-Amino-ethoxy)-ethoxy]-acetyl)-(gamma-Glu)-CO-(CH2) 16-CO2H; SITE 20: n
B12: Example 820 (peptide)
chain: B1 chain with F10X, I27L, G29A, E31P
modifications: synthetic construct; SITE 2: note = 2-Aminoisobutyric Acid; SITE 10: note = 3-(4-Pyridyl)-L-alanine; SITE 13: note = alpha-methyl-leucine; SITE 17: note = Lysine is chemically modified through conjugation of the epsilon-amino group of the Lysine side chain with (2-[2-(2-Amino-ethoxy)-ethoxy]-acetyl)

Residue numbers refer to the chain shown, from its start.

human glucagon receptor (human), sequence (P47871 26-477): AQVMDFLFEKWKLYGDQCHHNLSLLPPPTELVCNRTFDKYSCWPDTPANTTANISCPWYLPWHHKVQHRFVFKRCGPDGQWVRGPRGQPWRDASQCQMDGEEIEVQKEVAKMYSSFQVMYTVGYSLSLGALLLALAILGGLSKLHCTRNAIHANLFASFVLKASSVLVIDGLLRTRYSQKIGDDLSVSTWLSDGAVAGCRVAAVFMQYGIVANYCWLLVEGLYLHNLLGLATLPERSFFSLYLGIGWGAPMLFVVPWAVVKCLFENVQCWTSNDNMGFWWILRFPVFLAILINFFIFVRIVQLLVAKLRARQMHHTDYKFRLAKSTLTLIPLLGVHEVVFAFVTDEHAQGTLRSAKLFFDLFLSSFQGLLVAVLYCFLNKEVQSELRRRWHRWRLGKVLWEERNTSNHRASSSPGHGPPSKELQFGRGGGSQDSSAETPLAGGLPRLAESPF

One test addresses T1, human GIP receptor (human). The test is described as follows: cell-based or functional assay.
B1: the Relative cAMP EC50 was 0.345 nM and the cAMP Rel EC50, nM (1% HSA) worked out at 67.3 nM.

Molecule B2 gave a Relative cAMP EC50 of 0.0668 nM and a cAMP Rel EC50 (1% HSA) of 18.4 nM.

Turning to B3, the Relative cAMP EC50 stood at 0.0875 nM and the cAMP Rel EC50 (1% HSA) worked out at 13 nM.

Consider B4, for which the cAMP Rel EC50 turned out to be 13.8 nM.

In turn, B5 had a Relative cAMP EC50 of 0.098 nM and a cAMP Rel EC50, nM (1% HSA) of 17.5 nM.

For the molecule B6, the cAMP Rel EC50 was 12.4 nM.

B7 returned a Relative cAMP EC50 of 0.186 nM and a cAMP Rel EC50 (1% HSA) of 18.1 nM.

B8 came in with a cAMP Rel EC50 of 7.94 nM.

B9 yielded a Relative cAMP EC50 of 0.147 nM and a cAMP Rel EC50 (1% HSA) of 18.1 nM.

Consider B10, for which the Relative cAMP EC50 stood at 0.168 nM and the cAMP Rel EC50, nM (in the presence of 1% HSA) is 37.9 nM.

Molecule B11 had a Relative cAMP EC50 of 0.124 nM and a cAMP Rel EC50 (1% HSA) of 15.1 nM.

For the molecule B12, the Relative cAMP EC50 stood at 0.121 nM and the cAMP Rel EC50 (1% HSA) came out at 17.5 nM.

Another test has as its target human glucagon receptor (human) (UniProt P47871). Kind of test: cell-based or functional assay.
The molecule B1 registered a Relative cAMP EC50 of 1.77 nM and a cAMP Rel EC50, nM (1% HSA) of 566 nM.

Regarding B2, the Relative cAMP EC50 was found to be 1.64 nM and the cAMP Rel EC50 (1% HSA) came to 574 nM.

Turning to B3, the Relative cAMP EC50 came out at 3.97 nM and the cAMP Rel EC50 (1% HSA) stood at 1210 nM.

In the case of B4, the cAMP Rel EC50 is 689 nM.

Take B5: the Relative cAMP EC50 came to 5.3 nM and the cAMP Rel EC50, nM (1% HSA) was 1000 nM.

Molecule B6 had a cAMP Rel EC50 of 1110 nM.

As to B7, the Relative cAMP EC50 turned out to be 11.6 nM and the cAMP Rel EC50 (1% HSA) was 2100 nM.

As to B8, the cAMP Rel EC50 worked out at 940 nM.

B9 registered a Relative cAMP EC50 of 5.51 nM and a cAMP Rel EC50 (1% HSA) of 1200 nM.

On to B10, for which the Relative cAMP EC50 was found to be 15.3 nM and the cAMP Rel EC50, nM (in the presence of 1% HSA) was determined as 2610 nM.

B11 had a Relative cAMP EC50 of 8.25 nM and a cAMP Rel EC50 (1% HSA) of 2760 nM.

The molecule B12 showed a Relative cAMP EC50 of 6.83 nM and a cAMP Rel EC50 (1% HSA) of 1270 nM.

The target in a further test is hGLP-1R (Homo sapiens, UniProt P43220). The test is described as follows: cell-based or functional assay.
hGLP-1R, sequence (P43220 24-463): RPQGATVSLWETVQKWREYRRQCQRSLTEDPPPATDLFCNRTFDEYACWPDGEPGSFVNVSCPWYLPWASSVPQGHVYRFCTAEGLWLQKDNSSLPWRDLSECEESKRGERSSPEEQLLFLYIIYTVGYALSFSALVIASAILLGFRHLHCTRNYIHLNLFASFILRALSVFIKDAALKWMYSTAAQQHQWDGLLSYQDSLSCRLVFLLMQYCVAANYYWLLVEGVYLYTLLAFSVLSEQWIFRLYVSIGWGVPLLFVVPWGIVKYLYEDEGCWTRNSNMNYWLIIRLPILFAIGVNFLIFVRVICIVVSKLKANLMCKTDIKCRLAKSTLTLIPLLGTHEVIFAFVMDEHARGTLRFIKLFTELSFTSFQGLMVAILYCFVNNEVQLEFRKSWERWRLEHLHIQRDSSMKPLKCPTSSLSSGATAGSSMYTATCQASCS
B1: the Relative cAMP EC50 worked out at 0.972 nM and the cAMP Rel EC50, nM (1% HSA) came to 221 nM.

In turn, B2 gave a Relative cAMP EC50 of 0.462 nM and a cAMP Rel EC50 (1% HSA) of 179 nM.

B3: the Relative cAMP EC50 was 0.715 nM and the cAMP Rel EC50 (1% HSA) came out at 146 nM.

B4 gave a cAMP Rel EC50 of 78.6 nM.

Molecule B5 gave a Relative cAMP EC50 of 0.602 nM and a cAMP Rel EC50, nM (1% HSA) of 125 nM.

Regarding B6, the cAMP Rel EC50 was found to be 201 nM.

On to B7, for which the Relative cAMP EC50 was determined as 2.51 nM and the cAMP Rel EC50 (1% HSA) was 322 nM.

For the molecule B8, the cAMP Rel EC50 was found to be 70 nM.

For B9, the Relative cAMP EC50 came to 0.938 nM and the cAMP Rel EC50 (1% HSA) was found to be 133 nM.

B10: the Relative cAMP EC50 is 1.85 nM and the cAMP Rel EC50, nM (in the presence of 1% HSA) turned out to be 339 nM.

In the case of B11, the Relative cAMP EC50 stood at 0.706 nM and the cAMP Rel EC50 (1% HSA) stood at 128 nM.

The molecule B12 showed a Relative cAMP EC50 of 2.78 nM and a cAMP Rel EC50 (1% HSA) of 299 nM.

Source of the values: US20240270821A1, “GIP/GLP1/GCG TRI-RECEPTOR AGONISTS AND USES THEREOF” (priority 2023, published 2024).
